In patent US7410949 (Hoffmann-La Roche, dated 2008):
*1 amine or outer side, *2 acyl side, *3 side chain or, on linkers, in order; H or OH if unused. [ ]: non-standard residue; d: D form. Pqa = N-piperazin-1-yl-4(3H)-quinazolinone-3-acetic acid, O=C(Cn1cnc2ccc(N3CCN([*:1])CC3)cc2c1=O)[*:2]; Phe(3,4,5-F3) = N[C@@H](Cc1cc(F)c(F)c(F)c1)C(=O)O; Phe(F5) = N[C@@H](Cc1c(F)c(F)c(F)c(F)c1F)C(=O)O; Bip = N[C@@H](Cc1ccc(-c2ccccc2)cc1)C(=O)O; Dip = N[C@H](C(=O)O)C(c1ccccc1)c1ccccc1; 1Nal = N[C@@H](Cc1cccc2ccccc12)C(=O)O; 2Nal = N[C@@H](Cc1ccc2ccccc2c1)C(=O)O; 3Pal = N[C@@H](Cc1cccnc1)C(=O)O; Nle = CCCC[C@H](N)C(=O)O

These binders were tested against Y4R (assay: cell-based or functional assay).

Binder	Y4R EC50(nM) FLIPR [nM]
IKRHYLNLVTRQRY ((D)Leu at PYY position 28 (residue 4 of the second part); Pqa moiety between the two parts; C-terminal amide) [H-Ile-Lys-Pqa-Arg-His-Tyr-(D)Leu-Asn-Leu-Val-Thr-Arg-Gln-Arg-Tyr-NH2]	> 5000
Ac-I[Nle][Pqa]RH[Phe(F5)]LNLVTRQRY-NH2 (SMILES CCCC[C@H](NC(=O)[C@@H](NC(C)=O)[C@@H](C)CC)C(=O)N1CCN(c2ccc3ncn(CC(=O)N[C@@H](CCCNC(=N)N)C(=O)N[C@@H](Cc4c[nH]cn4)C(=O)N[C@@H](Cc4c(F)c(F)c(F)c(F)c4F)C(=O)N[C@@H](CC(C)C)C(=O)N[C@@H](CC(N)=O)C(=O)N[C@@H](CC(C)C)C(=O)N[C@H](C(=O)N[C@H](C(=O)N[C@@H](CCCNC(=N)N)C(=O)N[C@@H](CCC(N)=O)C(=O)N[C@@H](CCCNC(=N)N)C(=O)N[C@@H](Cc4ccc(O)cc4)C(N)=O)[C@@H](C)O)C(C)C)c(=O)c3c2)CC1) [Ac-Ile-Nle-Pqa-Arg-His-(2,3,4,5,6 Penta fluoroPhe)-Leu-Asn-Leu-Val-Thr-Arg-Gln-Arg-Tyr-NH2]	> 5000
Ac-I[Nle][Pqa]RH[Bip]LNLVTRQRY-NH2 (SMILES CCCC[C@H](NC(=O)[C@@H](NC(C)=O)[C@@H](C)CC)C(=O)N1CCN(c2ccc3ncn(CC(=O)N[C@@H](CCCNC(=N)N)C(=O)N[C@@H](Cc4c[nH]cn4)C(=O)N[C@@H](Cc4ccc(-c5ccccc5)cc4)C(=O)N[C@@H](CC(C)C)C(=O)N[C@@H](CC(N)=O)C(=O)N[C@@H](CC(C)C)C(=O)N[C@H](C(=O)N[C@H](C(=O)N[C@@H](CCCNC(=N)N)C(=O)N[C@@H](CCC(N)=O)C(=O)N[C@@H](CCCNC(=N)N)C(=O)N[C@@H](Cc4ccc(O)cc4)C(N)=O)[C@@H](C)O)C(C)C)c(=O)c3c2)CC1) [Ac-Ile-Nle-Pqa-Arg-His-Bip-Leu-Asn-Leu-Val-Thr-Arg-Gln-Arg-Tyr-NH2]	> 5000
Ac-I[Nle][Pqa]RH[1Nal]LNLVTRQRY-NH2 (SMILES CCCC[C@H](NC(=O)[C@@H](NC(C)=O)[C@@H](C)CC)C(=O)N1CCN(c2ccc3ncn(CC(=O)N[C@@H](CCCNC(=N)N)C(=O)N[C@@H](Cc4c[nH]cn4)C(=O)N[C@@H](Cc4cccc5ccccc45)C(=O)N[C@@H](CC(C)C)C(=O)N[C@@H](CC(N)=O)C(=O)N[C@@H](CC(C)C)C(=O)N[C@H](C(=O)N[C@H](C(=O)N[C@@H](CCCNC(=N)N)C(=O)N[C@@H](CCC(N)=O)C(=O)N[C@@H](CCCNC(=N)N)C(=O)N[C@@H](Cc4ccc(O)cc4)C(N)=O)[C@@H](C)O)C(C)C)c(=O)c3c2)CC1) [Ac-Ile-Nle-Pqa-Arg-His-(1)Nal-Leu-Asn-Leu-Val-Thr-Arg-Gln-Arg-Tyr-NH2]	> 5000
Ac-I[Nle][Pqa]RH[2Nal]LNLVTRQRY-NH2 (SMILES CCCC[C@H](NC(=O)[C@@H](NC(C)=O)[C@@H](C)CC)C(=O)N1CCN(c2ccc3ncn(CC(=O)N[C@@H](CCCNC(=N)N)C(=O)N[C@@H](Cc4c[nH]cn4)C(=O)N[C@@H](Cc4ccc5ccccc5c4)C(=O)N[C@@H](CC(C)C)C(=O)N[C@@H](CC(N)=O)C(=O)N[C@@H](CC(C)C)C(=O)N[C@H](C(=O)N[C@H](C(=O)N[C@@H](CCCNC(=N)N)C(=O)N[C@@H](CCC(N)=O)C(=O)N[C@@H](CCCNC(=N)N)C(=O)N[C@@H](Cc4ccc(O)cc4)C(N)=O)[C@@H](C)O)C(C)C)c(=O)c3c2)CC1) [Ac-Ile-Nle-Pqa-Arg-His-(2)Nal-Leu-Asn-Leu-Val-Thr-Arg-Gln-Arg-Tyr-NH2]	> 5000
IKRHYLNLVTRQRY (N-methyl His at PYY position 26 (residue 2 of the second part); Pqa moiety between the two parts; C-terminal amide) [H-Ile-Lys-Pqa-Arg-(NMe)His-Tyr-Leu-Asn-Leu-Val-Thr-Arg-Gln-Arg-Tyr-NH2]	> 5000
IKRHYLNLVTRQRY (N-methyl Lys at PYY position 4 (residue 2 of the first part); Pqa moiety between the two parts; C-terminal amide) [H-Ile-NMeLys-Pqa-Arg-His-Tyr-Leu-Asn-Leu-Val-Thr-Arg-Gln-Arg-Tyr-NH2]	> 5000
H-IK[Pqa]AHYLNLVTRQRY-NH2 (SMILES CC[C@H](C)[C@H](N)C(=O)N[C@@H](CCCCN)C(=O)N1CCN(c2ccc3ncn(CC(=O)N[C@@H](C)C(=O)N[C@@H](Cc4c[nH]cn4)C(=O)N[C@@H](Cc4ccc(O)cc4)C(=O)N[C@@H](CC(C)C)C(=O)N[C@@H](CC(N)=O)C(=O)N[C@@H](CC(C)C)C(=O)N[C@H](C(=O)N[C@H](C(=O)N[C@@H](CCCNC(=N)N)C(=O)N[C@@H](CCC(N)=O)C(=O)N[C@@H](CCCNC(=N)N)C(=O)N[C@@H](Cc4ccc(O)cc4)C(N)=O)[C@@H](C)O)C(C)C)c(=O)c3c2)CC1) [H-Ile-Lys-Pqa-Ala-His-Tyr-Leu-Asn-Leu-Val-Thr-Arg-Gln-Arg-Tyr-NH2]	> 5000
IKRHYLNLVTRQRY ((D)Arg at PYY position 25 (residue 1 of the second part); Pqa moiety between the two parts; C-terminal amide) [H-Ile-Lys-Pqa-(D)Arg-His-Tyr-Leu-Asn-Leu-Val-Thr-Arg-Gln-Arg-Tyr-NH2]	> 5000
IKRHYLNLVTRQRY (N-terminal acetyl; Pqa moiety between the two parts; C-terminal amide) [Ac-Ile-Lys-Pqa-Arg-His-Tyr-Leu-Asn-Leu-Val-Thr-Arg-Gln-Arg-Tyr-NH2]	> 5000
Ac-I[Nle][Pqa]RH[Phe(3,4,5-F3)]LNLVTRQRY-NH2 (SMILES CCCC[C@H](NC(=O)[C@@H](NC(C)=O)[C@@H](C)CC)C(=O)N1CCN(c2ccc3ncn(CC(=O)N[C@@H](CCCNC(=N)N)C(=O)N[C@@H](Cc4c[nH]cn4)C(=O)N[C@@H](Cc4cc(F)c(F)c(F)c4)C(=O)N[C@@H](CC(C)C)C(=O)N[C@@H](CC(N)=O)C(=O)N[C@@H](CC(C)C)C(=O)N[C@H](C(=O)N[C@H](C(=O)N[C@@H](CCCNC(=N)N)C(=O)N[C@@H](CCC(N)=O)C(=O)N[C@@H](CCCNC(=N)N)C(=O)N[C@@H](Cc4ccc(O)cc4)C(N)=O)[C@@H](C)O)C(C)C)c(=O)c3c2)CC1) [Ac-Ile-Nle-Pqa-Arg-His-(3,4,5trifluorPhe)-Leu-Asn-Leu-Val-Thr-Arg-Gln-Arg-Tyr-NH2]	> 5000
IKRHYLNLVTRQRY ((D)His at PYY position 26 (residue 2 of the second part); Pqa moiety between the two parts; C-terminal amide) [H-Ile-Lys-Pqa-Arg-(D)His-Tyr-Leu-Asn-Leu-Val-Thr-Arg-Gln-Arg-Tyr-NH2]	> 5000
IKRHYLNLVTRQRY (N-methyl Ile at PYY position 3 (residue 1 of the first part); Pqa moiety between the two parts; C-terminal amide) [H-NMeIle-Lys-Pqa-Arg-His-Tyr-Leu-Asn-Leu-Val-Thr-Arg-Gln-Arg-Tyr-NH2]	> 5000
IKRHYLNLVTRQRY ((D)Tyr at PYY position 36 (residue 12 of the second part); Pqa moiety between the two parts; C-terminal amide) [H-Ile-Lys-Pqa-Arg-His-Tyr-Leu-Asn-Leu-Val-Thr-Arg-Gln-Arg-(D)Tyr-NH2]	> 5000
IKRHYLNLVTRQRY ((D)Tyr at PYY position 27 (residue 3 of the second part); Pqa moiety between the two parts; C-terminal amide) [H-Ile-Lys-Pqa-Arg-His-(D)Tyr-Leu-Asn-Leu-Val-Thr-Arg-Gln-Arg-Tyr-NH2]	> 5000
Ac-I[Nle][Pqa]RH[Dip]LNLVTRQRY-NH2 (SMILES CCCC[C@H](NC(=O)[C@@H](NC(C)=O)[C@@H](C)CC)C(=O)N1CCN(c2ccc3ncn(CC(=O)N[C@@H](CCCNC(=N)N)C(=O)N[C@@H](Cc4c[nH]cn4)C(=O)N[C@H](C(=O)N[C@@H](CC(C)C)C(=O)N[C@@H](CC(N)=O)C(=O)N[C@@H](CC(C)C)C(=O)N[C@H](C(=O)N[C@H](C(=O)N[C@@H](CCCNC(=N)N)C(=O)N[C@@H](CCC(N)=O)C(=O)N[C@@H](CCCNC(=N)N)C(=O)N[C@@H](Cc4ccc(O)cc4)C(N)=O)[C@@H](C)O)C(C)C)C(c4ccccc4)c4ccccc4)c(=O)c3c2)CC1) [Ac-Ile-Nle-Pqa-Arg-His-Dip-Leu-Asn-Leu-Val-Thr-Arg-Gln-Arg-Tyr-NH2]	> 5000
Ac-I[Nle][Pqa]R[3Pal]YLNLVTRQRY-NH2 (SMILES CCCC[C@H](NC(=O)[C@@H](NC(C)=O)[C@@H](C)CC)C(=O)N1CCN(c2ccc3ncn(CC(=O)N[C@@H](CCCNC(=N)N)C(=O)N[C@@H](Cc4cccnc4)C(=O)N[C@@H](Cc4ccc(O)cc4)C(=O)N[C@@H](CC(C)C)C(=O)N[C@@H](CC(N)=O)C(=O)N[C@@H](CC(C)C)C(=O)N[C@H](C(=O)N[C@H](C(=O)N[C@@H](CCCNC(=N)N)C(=O)N[C@@H](CCC(N)=O)C(=O)N[C@@H](CCCNC(=N)N)C(=O)N[C@@H](Cc4ccc(O)cc4)C(N)=O)[C@@H](C)O)C(C)C)c(=O)c3c2)CC1) [Ac-Ile-Nle-Pqa-Arg-(3-Pal)-Tyr-Leu-Asn-Leu-Val-Thr-Arg-Gln-Arg-Tyr-NH2]	> 5000
IKRHYLNLVTRQRY (N-methyl Arg at PYY position 25 (residue 1 of the second part); Pqa moiety between the two parts; C-terminal amide) [H-Ile-Lys-Pqa-(NMe)Arg-His-Tyr-Leu-Asn-Leu-Val-Thr-Arg-Gln-Arg-Tyr-NH2]	> 5000
IKRHYLNLVTRQRY ((D)Asn at PYY position 29 (residue 5 of the second part); Pqa moiety between the two parts; C-terminal amide) [H-Ile-Lys-Pqa-Arg-His-Tyr-Leu-(D))Asn-Leu-Val-Thr-Arg-Gln-Arg-Tyr-NH2]	> 5000
